The RNAGym collection of RNA variant scans (doi:10.7554/elife.80360)

B1: Hammerhead Ribozyme (parent)
chain: ACCGGAUGUGCUUUCCGGUCUGAUGAGUCCGUGAGGACGAAACAG

Variants of: B1
Test: self-cleavage, relative activity (ratio to wild type); higher = more cleavage; co-transcriptional
With ACCGGAUGUGCUCUCCGGUCUCAUGAGUCCGUGAGGACGAAACAG [U13C G22C] the self-cleavage was 0.247.
With ACCGAAUGUGCUUUCCGGUCUGAUGAGUCCGUGAUGACGAAACAG [G5A G35U] the self-cleavage was 0.848.
Variant ACAGGAUGUGCCUUCCGGUCUGAUGAGUCCGUGAGGACGAAACAG [C3A U12C] has a self-cleavage of 0.262.
Variant ACCGGAAGUGCUUUCCGGUCUGUUGAGUCCGUGAGGACGAAACAG [U7A A23U] has a self-cleavage of 0.322.
With ACCGGAUGUGCUUUCCGGUCUGAUGAGUCCGUCAGGACUAAACAG [G33C G39U] the self-cleavage was 0.364.
For ACCGGAUGUGUUUUCCGGUCUGAUGUGUCCGUGAGGACGAAACAG [C11U A26U], the self-cleavage was 0.64.
ACUGGAUGUGCUUACCGGUCUGAUGAGUCCGUGAGGACGAAACAG [C3U U14A] gave a self-cleavage of 0.71.
With ACCGAAUGUGCUUUCCGGUCUGAUGAGUCCGUGAGGACGAAACAA [G5A G45A] the self-cleavage was 0.61.
ACCGGAUGUACUUUCCGGUCUGAUGAGUGCGUGAGGACGAAACAG [G10A C29G] gave a self-cleavage of 0.853.
In the case of ACCGGGUGUGCUUUCCGGUCUGAUCAGUCCGUGAGGACGAAACAG [A6G G25C], the self-cleavage is reported as 0.283.
In the case of ACCGGAUGUGAUUUCCGGUCUGAUGAGUCCGUGAGGAUGAAACAG [C11A C38U], the self-cleavage is reported as 1.1.
ACCGGUUGUGCUUUCCGGUCUGAUGAGUCCGUGAGGAUGAAACAG [A6U C38U] gave a self-cleavage of 0.627.
ACCGGAUGUGCUUUCCGGUCUGAUGGGUCCGUGAGGACGAAACUG [A26G A44U] showed a self-cleavage of 0.347.
With ACCGGAUGUGCUUUCCGGACUAAUGAGUCCGUGAGGACGAAACAG [U19A G22A] the self-cleavage was 0.346.
ACCGGAUGUGAUUUCCGGUCUGAUCAGUCCGUGAGGACGAAACAG [C11A G25C] gave a self-cleavage of 0.284.
With ACCGGAUGUGCUUUCCGGUCUGAUGCGUCUGUGAGGACGAAACAG [A26C C30U] the self-cleavage was 0.753.
ACCGGAUGAGCUUUCCGGUCUGAUGAGUCCGUGAGGACGAAAUAG [U9A C43U] gave a self-cleavage of 0.337.
ACCGGAUGUGCUUUCCGGUCCGAUGAGUCCAUGAGGACGAAACAG [U21C G31A] showed a self-cleavage of 0.974.
Work on ACCGGAUGUGCUUUCCGGUCUGUUGAGUCCGUGAGGACGAGACAG [A23U A41G] yielded a self-cleavage of 0.301.
With ACAGGAUGUGCUUUCCGGUCUGAUGAGUCCGUGAGGACGAACCAG [C3A A42C] the self-cleavage was 0.313.
Work on AACGGAUGUUCUUUCCGGUCUGAUGAGUCCGUGAGGACGAAACAG [C2A G10U] yielded a self-cleavage of 0.88.
With ACCGGAUGGGCUUUCCGGUCUGAUGAGUCCGUCAGGACGAAACAG [U9G G33C] the self-cleavage was 0.78.
With ACCGGAUGUGCUUUCCGGUCUGAUUAGUCCGGGAGGACGAAACAG [G25U U32G] the self-cleavage was 0.392.
In the case of CCCGGAUGUGCUUUCCGCUCUGAUGAGUCCGUGAGGACGAAACAG [A1C G18C], the self-cleavage is reported as 0.399.
ACCGGAUGUGCUUUCCGGUCUGAUGAGUCCGUGAGGAUGAAACAA [C38U G45A] showed a self-cleavage of 0.689.
For ACCGGCUGUGCUUUCCGGUCUGAUGAGUCCGUGAGGACGAAACAC [A6C G45C], the self-cleavage was 0.433.
For ACCGUAUGGGCUUUCCGGUCUGAUGAGUCCGUGAGGACGAAACAG [G5U U9G], the self-cleavage was 0.523.
For ACAGGAUGUGCUUUCCGGUCUGAUGAGUCCGUGAGGACGAAAAAG [C3A C43A], the self-cleavage was 0.28.
With ACCGGAUGUGCUUUCCGGUCUGAUGAGUCCGUCAGGACGAAAAAG [G33C C43A] the self-cleavage was 0.314.
In the case of ACCGGAUGUGCUGUCCGGUCUGAUGAGUCCGUGGGGACGAAACAG [U13G A34G], the self-cleavage is reported as 0.886.
For ACCGGAUGUGCUUUCCGGUGUGAUGAGUCCGUGAGGACGAAACAG [C20G], the self-cleavage was 0.341.
Work on ACCGGAUGGGCUUUCCGGUCUGAUGAGUCCGUGAGGUCGAAACAG [U9G A37U] yielded a self-cleavage of 0.611.
With ACCGGAUAUGCUUUCCGGUCUGAUGAGUCCGUGAGGACGAAACAC [G8A G45C] the self-cleavage was 0.512.
ACCGGAUGAGCUUUCCGGUCUGAUGAGUCCGUGAGGACGAGACAG [U9A A41G] gave a self-cleavage of 0.357.
AACGGAUGUGCUUUUCGGUCUGAUGAGUCCGUGAGGACGAAACAG [C2A C15U] showed a self-cleavage of 0.466.
ACCGGAAGUGCCUUCCGGUCUGAUGAGUCCGUGAGGACGAAACAG [U7A U12C] showed a self-cleavage of 0.79.
Variant ACCGGAUGUACGUUCCGGUCUGAUGAGUCCGUGAGGACGAAACAG [G10A U12G] has a self-cleavage of 1.51.
For ACCGGAUGUGCUUUCCGGUCUGAUGAGUCCGUGGGGACGAAACAC [A34G G45C], the self-cleavage was 0.551.
In the case of ACCGGAUGUGCUUUCCGGUCUGACGAGUGCGUGAGGACGAAACAG [U24C C29G], the self-cleavage is reported as 0.605.
In the case of ACCGGAUGUGCUUUCCGGUCUGAUGAGUCCGUGAGGACCAAAGAG [G39C C43G], the self-cleavage is reported as 0.384.
For ACCGGAUGUGCUUUGCGGACUGAUGAGUCCGUGAGGACGAAACAG [C15G U19A], the self-cleavage was 0.336.
In the case of AGCGGAUGUGCUUUCCGGUCUGAUGAGUCCGUGAGGACGAAAAAG [C2G C43A], the self-cleavage is reported as 0.328.
Work on ACCGGACGUGCUUUCCGGUCUGAUGAGUCCGUGAAGACGAAACAG [U7C G35A] yielded a self-cleavage of 0.732.
CCCGGAUGUGCUUUCCGGUCUGAUGGGUCCGUGAGGACGAAACAG [A1C A26G] showed a self-cleavage of 0.302.
Work on ACCGGAUGUGCUUUCCGGUCUGAUGCGUCCGUGAGGUCGAAACAG [A26C A37U] yielded a self-cleavage of 0.506.
For ACCGGAUGUGCUUUCCGGUCUGACGAGUCCGUGAGAACGAAACAG [U24C G36A], the self-cleavage was 0.56.
Work on ACCGGAUGUUCAUUCCGGUCUGAUGAGUCCGUGAGGACGAAACAG [G10U U12A] yielded a self-cleavage of 0.87.
ACCUGAUGUGCUUUCCGGUCUGAUGAGUCCGUGAGGACGCAACAG [G4U A40C] showed a self-cleavage of 0.224.
Work on ACCGGAUGUGCUUUCCGGUCUGAUGAGUCCGUGAGGAAGAUACAG [C38A A41U] yielded a self-cleavage of 0.336.
Work on ACCGAAUGUGCUUUCCGGUCUGAUGAGUCCGUGAGGACAAAACAG [G5A G39A] yielded a self-cleavage of 0.353.
With AGCGGAUGUGCUUUCCGGUCUGAUGAUUCCGUGAGGACGAAACAG [C2G G27U] the self-cleavage was 0.327.
ACCGGAUGUGCUUCCCGGUCUGAUGAGUCCGUGCGGACGAAACAG [U14C A34C] gave a self-cleavage of 0.791.
Work on ACCGGAUGUGCUUUCCGGUCUGAUGAGUCCGUGAUGCCGAAACAG [G35U A37C] yielded a self-cleavage of 0.548.
In the case of ACCGGAUGUGCUUUCCGGUCUGAUGAGUCCGUGAUGACGUAACAG [G35U A40U], the self-cleavage is reported as 0.366.
GCCGGAUGUGCUUUCCGGUCUGAUGAGUCCGUGAGGACGAAACAA [A1G G45A] showed a self-cleavage of 1.11.
For ACCGCAUGUGCUUUCCGGUCUGAUGAGUCCGUGAUGACGAAACAG [G5C G35U], the self-cleavage was 0.376.
With ACUGGCUGUGCUUUCCGGUCUGAUGAGUCCGUGAGGACGAAACAG [C3U A6C] the self-cleavage was 0.437.
